Source: publication PMC2659343
Read-outs that look alike come from different tables or passages of the source.

Tests used:
[1] = target: T1, MCR1 from 293T (co-expressed with GST-core RAG2);GST-core RAG2 (mouse?;mouse?, UniProt P15919;P21784 384-1008;1-387, |); experiment: EMSA
T1 sequence 1: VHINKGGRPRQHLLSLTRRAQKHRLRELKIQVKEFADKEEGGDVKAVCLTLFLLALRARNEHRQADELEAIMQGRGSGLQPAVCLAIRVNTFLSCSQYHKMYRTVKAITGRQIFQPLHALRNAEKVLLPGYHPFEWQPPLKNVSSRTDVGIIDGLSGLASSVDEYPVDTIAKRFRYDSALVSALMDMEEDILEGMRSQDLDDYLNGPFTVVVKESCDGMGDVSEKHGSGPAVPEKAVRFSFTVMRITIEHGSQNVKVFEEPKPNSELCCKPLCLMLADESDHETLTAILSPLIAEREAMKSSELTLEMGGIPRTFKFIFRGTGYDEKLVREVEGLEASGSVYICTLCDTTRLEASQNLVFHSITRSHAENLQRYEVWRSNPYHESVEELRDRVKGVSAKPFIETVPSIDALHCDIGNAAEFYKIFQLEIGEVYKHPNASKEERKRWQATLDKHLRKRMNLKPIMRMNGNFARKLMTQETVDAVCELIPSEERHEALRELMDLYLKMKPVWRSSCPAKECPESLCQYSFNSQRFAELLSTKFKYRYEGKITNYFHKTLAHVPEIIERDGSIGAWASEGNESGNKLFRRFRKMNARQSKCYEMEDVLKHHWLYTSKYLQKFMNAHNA
T1 sequence 2: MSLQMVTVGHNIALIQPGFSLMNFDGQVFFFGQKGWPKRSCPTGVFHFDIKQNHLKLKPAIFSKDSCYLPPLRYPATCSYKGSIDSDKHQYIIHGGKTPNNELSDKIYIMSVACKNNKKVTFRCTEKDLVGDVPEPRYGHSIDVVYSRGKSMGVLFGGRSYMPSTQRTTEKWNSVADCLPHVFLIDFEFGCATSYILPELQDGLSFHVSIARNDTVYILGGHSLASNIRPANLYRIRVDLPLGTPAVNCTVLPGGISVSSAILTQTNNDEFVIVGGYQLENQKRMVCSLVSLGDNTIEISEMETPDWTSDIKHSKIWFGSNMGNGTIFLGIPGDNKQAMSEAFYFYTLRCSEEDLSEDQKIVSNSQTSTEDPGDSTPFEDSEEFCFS

[2] = target: T1, MCR1 from 293T (co-expressed with …); experiment: EMSA; remark: listed apart in the source
[3] = target: T2, MCR1 (MBP-core RAG1);GST-core RAG2 (mouse?;mouse?, UniProt P15919;P21784 384-1008;1-387, |); experiment: EMSA
T2 sequence 1: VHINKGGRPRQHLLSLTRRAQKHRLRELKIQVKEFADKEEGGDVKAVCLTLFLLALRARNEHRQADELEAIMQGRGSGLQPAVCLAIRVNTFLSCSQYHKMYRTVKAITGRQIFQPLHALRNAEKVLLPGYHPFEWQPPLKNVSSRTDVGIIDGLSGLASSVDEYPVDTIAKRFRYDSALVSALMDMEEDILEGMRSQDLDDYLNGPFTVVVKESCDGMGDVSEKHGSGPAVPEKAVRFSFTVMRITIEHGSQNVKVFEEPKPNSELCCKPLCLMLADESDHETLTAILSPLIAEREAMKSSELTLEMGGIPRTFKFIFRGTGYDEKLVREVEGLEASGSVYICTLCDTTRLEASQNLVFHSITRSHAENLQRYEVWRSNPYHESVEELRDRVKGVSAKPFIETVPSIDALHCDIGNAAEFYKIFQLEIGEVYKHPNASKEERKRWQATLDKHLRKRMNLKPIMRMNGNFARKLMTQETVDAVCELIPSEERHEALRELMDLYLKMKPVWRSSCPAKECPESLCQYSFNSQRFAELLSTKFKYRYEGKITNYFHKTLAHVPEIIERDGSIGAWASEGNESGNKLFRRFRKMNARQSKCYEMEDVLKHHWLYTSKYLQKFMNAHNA
T2 sequence 2: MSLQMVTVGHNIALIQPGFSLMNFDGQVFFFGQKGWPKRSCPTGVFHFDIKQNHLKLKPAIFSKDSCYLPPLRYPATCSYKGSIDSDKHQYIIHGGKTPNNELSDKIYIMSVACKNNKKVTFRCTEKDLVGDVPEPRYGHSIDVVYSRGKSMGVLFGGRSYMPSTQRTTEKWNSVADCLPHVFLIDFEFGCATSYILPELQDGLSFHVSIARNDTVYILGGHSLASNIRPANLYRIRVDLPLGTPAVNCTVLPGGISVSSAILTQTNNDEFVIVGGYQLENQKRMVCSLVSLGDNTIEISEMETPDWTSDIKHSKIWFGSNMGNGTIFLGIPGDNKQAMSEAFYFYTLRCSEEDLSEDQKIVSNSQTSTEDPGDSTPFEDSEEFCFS

MCR1 (MBP-core RAG1) [4] = target: T3, MCR1 (MBP-core RAG1) (UniProt P15919 384-1008); experiment: EMSA
T3 sequence: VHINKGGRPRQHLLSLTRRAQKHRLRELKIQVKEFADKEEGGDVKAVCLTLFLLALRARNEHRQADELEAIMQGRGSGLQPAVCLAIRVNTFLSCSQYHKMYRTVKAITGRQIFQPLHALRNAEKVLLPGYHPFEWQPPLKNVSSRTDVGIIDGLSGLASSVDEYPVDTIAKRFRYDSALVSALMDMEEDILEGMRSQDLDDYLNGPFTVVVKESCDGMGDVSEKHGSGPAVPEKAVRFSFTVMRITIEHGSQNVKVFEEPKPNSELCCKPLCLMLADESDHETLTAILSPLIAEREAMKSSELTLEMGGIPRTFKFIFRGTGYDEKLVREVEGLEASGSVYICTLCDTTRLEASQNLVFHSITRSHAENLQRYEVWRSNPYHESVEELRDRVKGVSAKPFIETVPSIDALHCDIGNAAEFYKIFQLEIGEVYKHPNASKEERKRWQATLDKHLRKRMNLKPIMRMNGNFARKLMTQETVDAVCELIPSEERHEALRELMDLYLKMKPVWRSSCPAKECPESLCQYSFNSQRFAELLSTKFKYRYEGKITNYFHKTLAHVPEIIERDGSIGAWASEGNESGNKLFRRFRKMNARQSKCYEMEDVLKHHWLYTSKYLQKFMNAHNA

MCR1 (MBP-core RAG1) [5] = target: T3, MCR1 (MBP-core RAG1); experiment: fluorescence anisotropy
MCR1 (MBP-core RAG1) [6] = target: T3, MCR1 (MBP-core RAG1); experiment: fluorescence anisotropy; remark: listed apart in the source
MCR1 (MBP-core RAG1) [7] = target: T3, MCR1 (MBP-core RAG1); experiment: competition
[8] = target: T1, MCR1 from 293T (co-expressed with …); experiment: EMSA; remark: listed apart in the source
MCR1 (MBP-core RAG1) [9] = target: T3, MCR1 (MBP-core RAG1); experiment: EMSA; remark: listed apart in the source
[10] = target: T2, MCR1 (MBP-core RAG1);GST-core RAG2; experiment: EMSA; remark: listed apart in the source
MCR1 (MBP-core RAG1) [11] = target: T3, MCR1 (MBP-core RAG1); experiment: fluorescence anisotropy; remark: listed apart in the source

B1: WT 12-RSS (dsDNA)
DNA 1: GATATGGCTCGTCTTACACAGTGATATAGACCTTAACAAAAACCTCCAATCGAGCGGAG
DNA 2: CTCCGCTCGATTGGAGGTTTTTGTTAAGGTCTATATCACTGTGTAAGACGAGCCATATC
Which Kd [1] does the source give for B1 here?
The Kd was 25 ± 5 nM.

What about the Kd [2] of the same binder?
Its Kd is 32 ± 5 nM.

What about the Kd [3] of the same binder?
Its Kd is 87 ± 10 nM.

What about the Kd (MCR1 (MBP-core RAG1) [4]) of the same binder?
The Kd was 114 ± 5 nM.

B2: Oregon Green WT 12-RSS (dsDNA)
DNA 1: GATATGGCTCGTCTTACACAGTGATATAGACCTTAACAAAAACCTCCAATCGAGCGGAG
DNA 2: CTCCGCTCGATTGGAGGTTTTTGTTAAGGTCTATATCACTGTGTAAGACGAGCCATATC
Which Kd (MCR1 (MBP-core RAG1) [5]) does the source give for B2 here?
The Kd was 27 ± 9 nM.

What about the Kd (MCR1 (MBP-core RAG1) [6]) of the same binder?
The Kd was 123 nM.

B3: unlabeled WT 12-RSS competitor (dsDNA)
DNA 1: GATATGGCTCGTCTTACACAGTGATATAGACCTTAACAAAAACCTCCAATCGAGCGGAG
DNA 2: CTCCGCTCGATTGGAGGTTTTTGTTAAGGTCTATATCACTGTGTAAGACGAGCCATATC
How did the IC50 (MCR1 (MBP-core RAG1) [7]) turn out when B3 was run?
Its IC50 is 150 nM.

B4: MHMN (mutant heptamer, mutant nonamer) (dsDNA)
DNA 1: GATATGGCTCGTCTTAGAGAAGCATATAGACCTTAAGGCTCTGATCCAATCGAGCGGAG
DNA 2: CTCCGCTCGATTGGATCAGAGCCTTAAGGTCTATATGCTTCTCTAAGACGAGCCATATC
Does B4 bind [8]?
Result: no binding

What about the Kd (MCR1 (MBP-core RAG1) [9]) of the same binder?
The Kd was 123 ± 7 nM.

Does B4 bind [10]?
Result: no binding

B5: Oregon Green MHMN (dsDNA)
DNA 1: GATATGGCTCGTCTTAGAGAAGCATATAGACCTTAAGGCTCTGATCCAATCGAGCGGAG
DNA 2: CTCCGCTCGATTGGATCAGAGCCTTAAGGTCTATATGCTTCTCTAAGACGAGCCATATC
How did the Kd (MCR1 (MBP-core RAG1) [11]) turn out when B5 was run?
The Kd was 28 ± 8 nM.
